# Results as given in publication PMC11635053, “Development of a homotrimeric PSMA radioligand based on the NOTI chelating platform” (EJNMMI Radiopharmacy and Chemistry, 2024).
# Key:
# [1] = system: patient with metastatic prostate cancer; assay: Clinical PET/CT imaging; conditions: human, in vivo
# Procedure: PET/CT was performed approximately 1, 2, and 3 h after intravenous injection of 107 MBq of [^68Ga]Ga-9 and 1 h after injection of 113 MBq [^68Ga]Ga-PSMA-11 in a patient with metastatic prostate cancer. Whole body imaging extending from vertex to mid-femur was performed in 3D-ToF mode on a Biograph mCT 40 scanner (Siemens Medical Solutions, Knoxville, TN, USA) with an extended field of view of 21.4 cm. PET acquisition time was 3 min bed position^−1. Low-dose CT acquisition was performed for attenuation correction and anatomical localization using an X-ray tube voltage of 120 kV and a modulation of the tube current (maximal tube current: 30 mA; CARE Dose 4D software Siemens Healthineers, Erlangen, Germany) followed by reconstruction with a soft tissue reconstruction kernel (Bf37) to a slice thickness of 5 mm (increment 2–4 mm). PET emission data were additionally corrected for decay, randoms and scatter and reconstructed applying an iterative 3D ordered subset expectation maximization algorithm (3 iterations; 21 subsets) withGaussian filtering to transaxial resolution of 5 mm at full width at half maximum. The matrix size was 200 × 200 mm and the reconstructed pixel size was 5.0 mm.
# [2] = type: in vitro ADME; conditions: 2 h
# Procedure: 100 μL of the radiolabeling solution of each ^68Ga-labeled tracer were added to preheated (37 °C) 1000 μL human serum (male, AB, Sigma Aldrich, USA) in triplicates and incubated at 37 °C. At 1 and 2 h, 100 µL aliquots were taken, mixed with 100 µL ice-cold acetonitrile, and centrifuged at 4 G for 5 min at 4 °C. The corresponding filtrates were kept on ice until HPLC analysis. The supernatants were then analyzed by radio-RP-HPLC and fractions of intact compounds were calculated from the HPLC chromatograms. (gradient 4,Gamma-ray detector: 100–900 keV, injection volume: 20 μl). tR ([^68Ga]Ga-7) = 12.1 min, tR ([^68Ga]Ga-8) = 14.4 min, tR ([^68Ga]Ga-9) = 25.2 min.
# [3] = system: PSMA-positive LNCaP cells; assay: Cell uptake / internalization of 68Ga-labeled conjugates in LNCaP cells; type: cell-based, human; conditions: 1 h incubation, 2.5 pmol per 10^6 cells, 68Ga-labeled
# Procedure: Next, the cellular uptake of the ^68Ga-labeled conjugates 7, 8, and 9 as well as [^68Ga]Ga-PSMA-11 was determined in PSMA-positive LNCaP cells.
# LNCaP cells were seeded (10^6 cells well^−1) in poly-L-lysine coated 6-well plates 24 h before the experiment. Experiments were performed twice in triplicate for each compound. The radiolabeling solutions of [^68Ga]Ga-7, [^68Ga]Ga-8, [^68Ga]Ga-9, and [^68Ga]Ga-PSMA-11 were first diluted with PBS (pH 7.4) to a concentration of […]. 100 µL of this dilution were added to 3900 µL PBS (pH 7.4) to obtain final stock solutions of each radiolabeled compound (0.025 nmol mL^−1).
# On the day of the experiment, the medium was replaced by fresh preheated medium (1.4 mL w/o blocking, 1.3 mL with blocking) and the cells incubated for 1 h at 37 °C. Next, the blocking solution was added (100 μL, 2500 pmol) to the corresponding wells. Finally, the corresponding radiolabeled conjugate (100 μL, 2.5 pmol) was added to a final assay volume of 1.5 mL well^−1. After 1 h incubation time, the supernatants were removed and the cells were washed carefully with ice-cold PBS buffer (2 × 1 mL, pH 7.4) followed by a subsequent glycine–HCl washing step (50 mM, pH 2.8, 2 × 1 mL well^−1). Cells were incubated with the glycine–HCl solution for 4 min at r.t. Next, corresponding fractions were transferred into counting tubes. Subsequently, the cells were lysed by adding NaOH (2 × 1 mL well^−1, 0.1 M) and the lysed fractions were also transferred into counting tubes. As standards, 100 µL of each radiolabeled conjugate stock solution (0.025 nmol mL^−1, 2.5 pmol) were pipetted into counting tubes containing 2 mL PBS buffer. The activity of the standards, the surface bound fractions and the internalized fractions were measured in a Gamma counter. Means were calculated and subtracted by the background. The percentages of unspecific and specific cell-surface bound and internalized activity were calculated from the standards.
# in vivo = assay: in vivo; set-up: species or system mice; conditions: male, NOD/SCID, mouse, iv, total radioactivity
# Procedure: The capability of [^68Ga]Ga-9 to delineate PSMA-expressing tumors in vivo was evaluated by small-animal PET imaging at 1 and 2 h p.i. For this, mice bearing LNCaP xenografts (n = 3) were injected with 1–3 MBq (250–500 pmol) [^68Ga]Ga-9 into a tail vein and subjected to micro-PET/CT imaging at 1 h post-injection (p.i.). PSMA specificity was confirmed by co-injection of 2-PMPA (1 µmol mouse^−1). […] LNCaP tumors were clearly visualized by [^68Ga]Ga-9 and only the kidneys and the bladder as the major excretory organs were visible. […] The kidney uptake was 67.86 ± 8.35% IA g^−1 (n = 3) in the normal group vs. 19.9 ± 4.43% IA g^−1 in the blocking group (n = 3). […] The blood uptake was relatively high at 1 h p.i. with 3.62 ± 0.42% IA g^−1. Uptake in the muscles was low with 0.32 ± 0.12% IA g^−1. […]
# For PET imaging studies, mice were injected with 100 µL sterile saline formulations of 250–500 pmol [^68Ga]Ga-9 (1–3 MBq) by intravenous tail-vein injection and anesthetized with isoflurane (2–4% in air). […] Image counts per second per voxel (cps voxel^−1) were calibrated to activity concentrations (Bq mL^−1) by measuring a 3.5 cm cylinder phantom filled with a known concentration of radioactivity. […]
# Competitive inhibition (blocking) studies were also performed in vivo and measured using static PET imaging to investigate the specificity of the radiotracers for PSMA. […]
structure (smiles),measurement,setting,value
"O=C(O)CC[C@H](NC(=O)N[C@@H](CCCCNC(=O)[C@H](Cc1ccc2ccccc2c1)NC(=O)[C@H]1CC[C@H](CNC(=O)CCCCn2ccnc2CN2CCN(Cc3nccn3CCCCC(=O)NC[C@H]3CC[C@H](C(=O)N[C@@H](Cc4ccc5ccccc5c4)C(=O)NCCCC[C@H](NC(=O)N[C@@H](CCC(=O)O)C(=O)O)C(=O)O)CC3)CCN(Cc3nccn3CCCCC(=O)NC[C@H]3CC[C@H](C(=O)N[C@@H](Cc4ccc5ccccc5c4)C(=O)NCCCC[C@H](NC(=O)N[C@@H](CCC(=O)O)C(=O)O)C(=O)O)CC3)CC2)CC1)C(=O)O)C(=O)O [^nat/68Ga-9, metal not drawn]",SUVpeak in the parotid gland,[1],26.7
same,SUVpeak in the submandibular gland,[1],23.5
same,SUVpeak kidneys,[1],33.1
same,"SUVpeak, first target lesion",[1],23.7
same,"SUVpeak, second target lesion",[1],12.8
same,"SUVpeak, third target lesion",[1],10.3
same,Metabolic stability in human serum,[2],no significant degradation
same,Cell-surface bound fraction,[3],1.5 ± 0.5%
same,tissue to tissue ratio at 1 h,in vivo; Tumor-to-kidney ratio,0.24
same,tissue to tissue ratio at 1 h,in vivo; Tumor-to-liver ratio,5.17
